Source: patent US20230212306A1 (Daiichi Sankyo, published 2023)
One block for each binder: values may come before it.

Key:
[1] = target: T1, rat TLR7-Flag-His×6, expressed in Ba/F3 cells (rat, UniProt P58681 27-1050 (mouse entry)); assay: flow cytometry (MFI) on saponin-permeabilised Ba/F3 cells expressing rat TLR7-Flag-His×6
T1 construct: cells permeabilised with 0.1% saponin; not shown: Flag-His×6 tag added to the C-terminus
T1 chain: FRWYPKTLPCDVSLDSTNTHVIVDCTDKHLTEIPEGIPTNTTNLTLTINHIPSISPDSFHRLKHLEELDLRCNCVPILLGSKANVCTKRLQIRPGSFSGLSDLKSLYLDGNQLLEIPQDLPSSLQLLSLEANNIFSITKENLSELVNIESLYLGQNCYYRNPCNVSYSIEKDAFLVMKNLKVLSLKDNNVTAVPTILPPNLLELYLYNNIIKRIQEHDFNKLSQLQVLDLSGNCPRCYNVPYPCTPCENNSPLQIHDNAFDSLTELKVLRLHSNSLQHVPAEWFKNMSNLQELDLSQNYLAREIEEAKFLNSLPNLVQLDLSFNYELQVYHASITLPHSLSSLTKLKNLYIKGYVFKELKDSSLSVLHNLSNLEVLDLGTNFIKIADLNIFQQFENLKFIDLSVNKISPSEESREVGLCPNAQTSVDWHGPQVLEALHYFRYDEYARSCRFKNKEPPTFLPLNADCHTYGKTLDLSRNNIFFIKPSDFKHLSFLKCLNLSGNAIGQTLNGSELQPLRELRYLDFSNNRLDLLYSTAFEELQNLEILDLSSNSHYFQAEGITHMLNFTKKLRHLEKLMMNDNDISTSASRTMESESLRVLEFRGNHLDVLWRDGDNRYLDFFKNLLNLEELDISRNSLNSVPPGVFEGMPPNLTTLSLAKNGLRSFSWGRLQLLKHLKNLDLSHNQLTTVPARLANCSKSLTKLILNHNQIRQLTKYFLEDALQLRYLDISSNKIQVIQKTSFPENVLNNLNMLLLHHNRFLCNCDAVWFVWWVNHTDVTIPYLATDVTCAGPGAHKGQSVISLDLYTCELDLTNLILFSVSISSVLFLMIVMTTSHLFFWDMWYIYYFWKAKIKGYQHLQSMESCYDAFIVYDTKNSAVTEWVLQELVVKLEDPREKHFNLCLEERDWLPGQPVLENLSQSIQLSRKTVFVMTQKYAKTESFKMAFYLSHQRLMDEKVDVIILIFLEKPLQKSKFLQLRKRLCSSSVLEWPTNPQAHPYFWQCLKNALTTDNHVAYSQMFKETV
Text: (§1) The Ba/F3 cell line expressing human TLR7-Flag-His×6/human Unc93B1-HA×2 established above in 1)-1-1, the Ba/F3 cell line expressing mouse TLR7-Flag-His×6 established above in 2)-1-1, the Ba/F3 cell line expressing rat TLR7-Flag-His×6×2 established above in 2)-1-2, and the Ba/F3 cell line expressing monkey TLR7-Flag-His×6 established above in 2)-1-3 were subjected to membrane permeation with 0.1% Saponin and stained using AT01 antibody, NB7 antibody, and FAN2 antibody, and a secondary antibody, Goat anti-mouse IgG (H+L)-PE (eBioscience). The binding selectivity of each antibody was evaluated by comparing the average fluorescence intensity (MFI) based on flow cytometry analysis.

[2] = target: T2, human TLR7-Flag-His×6 (human TLR7 variant 2), expressed in Ba/F3 cells together with human Unc93B1-HA×2 (human, UniProt Q9NYK1 27-1049); assay: flow cytometry (MFI) on saponin-permeabilised Ba/F3 cells expressing human TLR7-Flag-His×6/human Unc93B1-HA×2
T2 construct: Cells were permeabilised with 0.1% saponin before staining; also called hTLR7-Flag-His×6; not shown: Flag-His×6 tag added to the C-terminus
T2 sequence: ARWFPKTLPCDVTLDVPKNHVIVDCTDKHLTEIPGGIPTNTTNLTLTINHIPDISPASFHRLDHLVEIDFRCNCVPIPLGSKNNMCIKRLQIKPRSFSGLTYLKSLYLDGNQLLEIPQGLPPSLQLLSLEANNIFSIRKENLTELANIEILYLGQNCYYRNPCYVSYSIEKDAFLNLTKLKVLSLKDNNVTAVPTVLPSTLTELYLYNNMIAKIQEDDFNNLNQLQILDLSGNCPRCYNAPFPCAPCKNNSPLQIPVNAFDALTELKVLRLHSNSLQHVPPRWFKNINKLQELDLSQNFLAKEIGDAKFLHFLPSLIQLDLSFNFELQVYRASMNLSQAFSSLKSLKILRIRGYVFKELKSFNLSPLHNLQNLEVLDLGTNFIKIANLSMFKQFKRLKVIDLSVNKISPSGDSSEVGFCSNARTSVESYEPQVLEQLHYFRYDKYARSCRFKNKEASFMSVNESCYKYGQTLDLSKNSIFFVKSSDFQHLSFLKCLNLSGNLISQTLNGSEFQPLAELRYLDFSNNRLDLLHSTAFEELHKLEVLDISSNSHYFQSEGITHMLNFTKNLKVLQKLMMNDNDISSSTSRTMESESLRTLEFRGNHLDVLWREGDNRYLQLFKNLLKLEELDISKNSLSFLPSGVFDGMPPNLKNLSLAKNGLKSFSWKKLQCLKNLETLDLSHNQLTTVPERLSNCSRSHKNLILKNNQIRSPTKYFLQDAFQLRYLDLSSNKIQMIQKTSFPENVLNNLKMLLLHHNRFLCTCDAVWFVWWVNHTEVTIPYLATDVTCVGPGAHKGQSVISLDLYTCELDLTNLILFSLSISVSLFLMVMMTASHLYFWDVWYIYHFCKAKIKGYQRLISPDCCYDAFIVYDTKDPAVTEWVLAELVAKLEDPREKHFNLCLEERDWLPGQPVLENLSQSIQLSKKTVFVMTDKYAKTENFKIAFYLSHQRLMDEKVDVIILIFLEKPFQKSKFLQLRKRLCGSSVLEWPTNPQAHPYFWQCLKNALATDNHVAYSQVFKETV
Text: as §1

[3] = target: T3, human TLR7 (variant 2)-Flag, expressed in HEK293 cells (human, UniProt Q9NYK1 27-1049); assay: flow cytometry on fixed and permeabilised HEK293 cells expressing human TLR7 (variant 2)-Flag
T3 construct: Transient expression from pcDNA3.1 in Lenti-X HEK293T cells; cells fixed and permeabilised before staining; not shown: Flag tag
T3 sequence: T2 sequence
Text: The HEK293 cells expressing human TLR7 (variant 1)-Flag prepared in 8)-1, the HEK293 cells expressing human TLR7 (variant 2)-Flag prepared in 8)-2, the HEK293 cells expressing monkey TLR7-Flag prepared in 8)-3, the HEK293 cells expressing mouse TLR7-Flag prepared in 8)-4, and the HEK293 cells expressing rat TLR7-Flag prepared in 8)-5 were immobilized/subjected to membrane permeation with a Fixation and Permeabilization Solution (Becton, Dickinson and Company) and thereafter stained using huAT01_H3L2_IgG1LALA, which is one of the humanized anti-human TLR7 antibodies, and ALEXA FLUOR® 647 AffiniPure Goat anti-human IgG+IgM (H+L) (Jackson ImmunoResearch Inc.), which is the secondary antibody.
The binding of the humanized anti-human TLR7 antibody to human TLR7 was detected based on flow cytometry (Miltenyi Biotec K.K.), and the data was analyzed using software (Flowjo) which analyzes the data of flow cytometry.

B1: FAN2 antibody (antibody, IgG1, V domains shown)
VH: QVQLKESGPGLVAPSQSLSITCTVSGFSLTGYGVNWVRQPPGKGLEWLGMIWGDGSTDYNSALKSRLSIRKDNSKSQVFLKMNSLQTDDTARYYCARDKGYDGYYYAMDYWGQGTSVTVSS
VL: DIQMTQSPASLSASVGETVTITCRASENIYSYLAWYQQKQGKSPQLLVYDAKTLAEGVPSRFSGSGSGTQFSLKINSLQPEDFGSYYCQHHYGIPYTFGGGTKLEIK
notes: also called mouse anti-human TLR7 antibody (FAN2)
- binding result [1]: no binding
- binding result [2]: binds

B2: huAT01_H3L2_IgG1LALA antibody (antibody, V domains shown)
VH: QVQLVQSGAEVKKPGASVKVSCKASGYTFTNNWLHWVRQAPGQGLEWMGDIYPSNGRTNYAQKFQGRVTLTVDKSTSTAYMELSSLRSEDTAVYFCARERGYFDYWGQGTLVTVSS
VL: DIQMTQSPSSLSASVGDRVTITCKASQDINKYIAWYQQKPGKAPKLLIHYTSTLQPGIPSRFSGSGSGRDYTLTISSLQPEDFATYYCLQYDYLLTFGQGTKVEIKR
notes: Humanized AT01; heavy huAT01_H3_IgG1LALA, light huAT01_L2
- binding result [3]: binds

Results, then the binder that gave them:

- binding result [1]: no binding
- binding result [2]: binds
B3: NB7 antibody (antibody, IgG1, V domains shown)
VH: DVQLQESGPGLVKPSQSLSLTCTVTGYSITSDYAWNWIRQFPGNKLEWMGHISYRGNTNYNPSLKSRISITRDTSKNQFFLQLNSVTTEDTATYYCASWNYYGYVDYAMDYWGQGTSVTVSS
VL: DIQMTQTPSSLSASLGDRVTISCRASQDISNYLNWYQQKPDGTVKLLIYYTSRLHSGVPSRFSGSGSGTDYSLTINNLEQEDIATYFCQQGDTFPTFGGGTKLEIK
notes: also called mouse anti-human TLR7 antibody (NB7)

- binding result [1]: no binding
- binding result [2]: binds
B4: AT01 antibody (antibody, IgG1, V domains shown)
VH: QVQLQQPGAELVKPGASVNLSCKASGYTFTNNWLHWVKQRPGRGLEWIGDIYPSNGRTNYNEQFKTKATLTVDKSSSTAYMQLSSLTSEDSAVYFCARERGYFDYWGQGTALTVSS
VL: DIQMTQSPSSLSTSLGGKVTITCKASQDINKYIAWYQHKPGKGPRLLIHYTSTLQPGIPSRFSGSGSGRDYSFSISNLEPEDIATYYCLQYDYLLTFGAGTKLELK
notes: also called mouse anti-human TLR7 antibody (AT01)
